Reference: the supplement of paper PMC5998384

Tests used:
HeLa Kyoto [1] = assay: solubility change mitosis vs G1/S (difference of NP-40 vs SDS log2 ratios) (log2 ratio difference); higher = more soluble in mitosis
HeLa Kyoto [2] = assay: thermal stability score vs G1/S (z-score of summed log2 fold changes over temperatures); higher = more thermally stable than in G1/S
HeLa Kyoto [3] = assay: solubility in G1/S (NP-40 vs SDS abundance) (log2 ratio); higher = more soluble; conditions: cell cycle stage: G1/S
HeLa Kyoto [4] = assay: melting temperature (median over replicates), in situ; higher = more thermally stable
[5] = cell cycle stage: early G1 (4.5 h after nocodazole release)
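Wherever melting temperature (median over replicates), in situ is given: HeLa Kyoto cells synchronized by double thymidine or nocodazole block, proteins quantified by TMT10plex mass spectrometry, three independent biological replicates.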
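Wherever solubility change mitosis vs G1/S (difference of NP-40 vs SDS log2 ratios) is given: synchronized HeLa Kyoto cells (double thymidine block for G1/S, nocodazole release for mitosis), protein amounts in NP-40 versus SDS lysates quantified by mass spectrometry, three biological replicates.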
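Wherever solubility in G1/S (NP-40 vs SDS abundance) is given: HeLa Kyoto cells arrested at G1/S by double thymidine block, proteins quantified by TMT10plex mass spectrometry in mild NP-40 versus SDS extracts, three biological replicates.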
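Wherever thermal stability score vs G1/S (z-score of summed log2 fold changes over temperatures) is given: synchronized HeLa Kyoto cells, proteins quantified by TMT10plex mass spectrometry, three biological replicates, mitosis taken 0.5 h after nocodazole release, G1/S directly after double thymidine block.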

| Sequence | solubility change mitosis (log2) (HeLa Kyoto [1]) | thermal stability score (HeLa Kyoto [2]; [5]) | thermal stability score (HeLa Kyoto [2]; cell cycle stage: mitosis) | solubility in G1/S (log2) (HeLa Kyoto [3]) | melting temperature (HeLa Kyoto [4]; cell cycle stage: G1/S) [°C] | melting temperature (HeLa Kyoto [4]; cell cycle stage: mitosis) [°C] |
| --- | --- | --- | --- | --- | --- | --- |
| MAQFGGQKNPPWATQFTATAVSQPAALGVQQPSLLGASPTIYTQQTALAAAGLTTQTPANYQLTQTAALQQQAAAAAAALQQQYSQPQQALYSVQQQLQQPQQTLLTQPAVALPTSLSLSTPQPTAQITVSYPTPRSSQQQTQPQKQRVFTGVVTKLHDTFGFVDEDVFFQLSAVKGKTPQVGDRVLVEATYNPNMPFKWNAQRIQTLPNQNQSQTQPLLKTPPAVLQPIAPQTTFGVQTQPQPQSLLQAQISAASITPLLQTQPQPLLQQPQQKAGLLQPPVRIVSQPQPARRLDPPSRFSGRNDRGDQVPNRKDDRSRERERERRRSRERSPQRKRSRERSPRRERERSPRRVRRVVPRYTVQFSKFSLDCPSCDMMELRRRYQNLYIPSDFFDAQFTWVDAFPLSRPFQLGNYCNFYVMHREVESLEKNMAILDPPDADHLYSAKVMLMASPSMEDLYHKSCALAEDPQELRDGFQHPARLVKFLVGMKGKDEAMAIGGHWSPSLDGPDPEKDPSVLIKTAIRCCKALTGIDLSVCTQWYRFAEIRYHRPEETHKGRTVPAHVETVVLFFPDVWHCLPTRSEWETLSRGYKQQLVEKLQGERKEADGEQDEEEKDDGEAKEISTPTHWSKLDPKTMKVNDLRKELESRALSSKGLKSQLIARLTKQLKVEEQKEEQKELEKSEKEEDEDDDRKSEDDKEEEERKRQEEIERQRRERRYILPDEPAIIVHPNWAAKSGKFDCSIMSLSVLLDYRLEDNKEHSFEVSLFAELFNEMLQRDFGVRIYKSLLSLPEKEDKKEKDKKSKKDERKDKKEERDDETDEPKPKRRKSGDDKDKKEDRDERKKEDKRKDDSKDDDETEEDNNQDEYDPMEAEEAEDEEDDRDEEEMTKRDDKRDINRYCKERPSKDKEKEKTQMITINRDLLMAFVYFDQSHCGYLLEKDLEEILYTLGLHLSRAQVKKLLNKVVLRESCFYRKLTDTSKDEENHEESESLQEDMLGNRLLLPTPTVKQESKDVEENVGLIVYNGAMVDVGSLLQKLEKSEKVRAEVEQKLQLLEEKTDEDEKTILNLENSNKSLSGELREVKKDLSQLQENLKISENMNLQFENQMNKTIRNLSTVMDEIHTVLKKDNVKNEDKDQKSKENGASV [CCAR1] | 0.0916 | 0.304 | 1.74 | -0.232 | 50.9 | 50.8 |
| MCSLASGATGGRGAVENEEDLPELSDSGDEAAWEDEDDADLPHGKQQTPCLFCNRLFTSAEETFSHCKSEHQFNIDSMVHKHGLEFYGYIKLINFIRLKNPTVEYMNSIYNPVPWEKEEYLKPVLEDDLLLQFDVEDLYEPVSVPFSYPNGLSENTSVVEKLKHMEARALSAEAALARAREDLQKMKQFAQDFVMHTDVRTCSSSTSVIADLQEDEDGVYFSSYGHYGIHEEMLKDKIRTESYRDFIYQNPHIFKDKVVLDVGCGTGILSMFAAKAGAKKVLGVDQSEILYQAMDIIRLNKLEDTITLIKGKIEEVHLPVEKVDVIISEWMGYFLLFESMLDSVLYAKNKYLAKGGSVYPDICTISLVAVSDVNKHADRIAFWDDVYGFKMSCMKKAVIPEAVVEVLDPKTLISEPCGIKHIDCHTTSISDLEFSSDFTLKITRTSMCTAIAGYFDIYFEKNCHNRVVFSTGPQSTKTHWKQTVFLLEKPFSVKAGEALKGKVTVHKNKKDPRSLTVTLTLNNSTQTYGLQ [PRMT3] | -0.212 | 0.9 | 1.13 | -0.146 | 50.9 | 51 |
| MLPHVVLTFRRLGCALASCRLAPARHRGSGLLHTAPVARSDRSAPVFTRALAFGDRIALVDQHGRHTYRELYSRSLRLSQEICRLCGCVGGDLREERVSFLCANDASYVVAQWASWMSGGVAVPLYRKHPAAQLEYVICDSQSSVVLASQEYLELLSPVVRKLGVPLLPLTPAIYTGAVEEPAEVPVPEQGWRNKGAMIIYTSGTTGRPKGVLSTHQNIRAVVTGLVHKWAWTKDDVILHVLPLHHVHGVVNALLCPLWVGATCVMMPEFSPQQVWEKFLSSETPRINVFMAVPTIYTKLMEYYDRHFTQPHAQDFLRAVCEEKIRLMVSGSAALPLPVLEKWKNITGHTLLERYGMTEIGMALSGPLTTAVRLPGSVGTPLPGVQVRIVSENPQREACSYTIHAEGDERGTKVTPGFEEKEGELLVRGPSVFREYWNKPEETKSAFTLDGWFKTGDTVVFKDGQYWIRGRTSVDIIKTGGYKVSALEVEWHLLAHPSITDVAVIGVPDMTWGQRVTAVVTLREGHSLSHRELKEWARNVLAPYAVPSELVLVEEIPRNQMGKIDKKALIRHFHPS [ACSF3] | -0.0957 | -0.21 | 1.59 | -0.107 | 49.3 | 49.7 |
| MAQSLRLHFAARRSNTYPLSETSGDDLDSHVHMCFKRPTRISTSNVVQMKLTPRQTALAPLIKENVQSQERSSVPSSENVNKKSSCLQISLQPTRYSGYLQSSNVLADSDDASFTCILKDGIYSSAVVDNELNAVNDGHLVSSPAICSGSLSNFSTSDNGSYSSNGSDFGSCASITSGGSYTNSVISDSSSYTFPPSDDTFLGGNLPSDSTSNRSVPNRNTTPCEIFSRSTSTDPFVQDDLEHGLEIMKLPVSRNTKIPLKRYSSLVIFPRSPSTTRPTSPTSLCTLLSKGSYQTSHQFIISPSEIAHNEDGTSAKGFLSTAVNGLRLSKTICTPGEVRDIRPLHRKGSLQKKIVLSNNTPRQTVCEKSSEGYSCVSVHFTQRKAATLDCETTNGDCKPEMSEIKLNSDSEYIKLMHRTSACLPSSQNVDCQININGELERPHSQMNKNHGILRRSISLGGAYPNISCLSSLKHNCSKGGPSQLLIKFASGNEGKVDNLSRDSNRDCTNELSNSCKTRDDFLGQVDVPLYPLPTENPRLERPYTFKDFVLHPRSHKSRVKGYLRLKMTYLPKTSGSEDDNAEQAEELEPGWVVLDQPDAACHLQQQQEPSPLPPGWEERQDILGRTYYVNHESRRTQWKRPTPQDNLTDAENGNIQLQAQRAFTTRRQISEETESVDNRESSENWEIIREDEATMYSNQAFPSPPPSSNLDVPTHLAEELNARLTIFGNSAVSQPASSSNHSSRRGSLQAYTFEEQPTLPVLLPTSSGLPPGWEEKQDERGRSYYVDHNSRTTTWTKPTVQATVETSQLTSSQSSAGPQSQASTSDSGQQVTQPSEIEQGFLPKGWEVRHAPNGRPFFIDHNTKTTTWEDPRLKIPAHLRGKTSLDTSNDLGPLPPGWEERTHTDGRIFYINHNIKRTQWEDPRLENVAITGPAVPYSRDYKRKYEFFRRKLKKQNDIPNKFEMKLRRATVLEDSYRRIMGVKRADFLKARLWIEFDGEKGLDYGGVAREWFFLISKEMFNPYYGLFEYSATDNYTLQINPNSGLCNEDHLSYFKFIGRVAGMAVYHGKLLDGFFIRPFYKMMLHKPITLHDMESVDSEYYNSLRWILENDPTELDLRFIIDEELFGQTHQHELKNGGSEIVVTNKNKKEYIYLVIQWRFVNRIQKQMAAFKEGFFELIPQDLIKIFDENELELLMCGLGDVDVNDWREHTKYKNGYSANHQVIQWFWKAVLMMDSEKRIRLLQFVTGTSRVPMNGFAELYGSNGPQSFTVEQWGTPEKLPRAHTCFNRLDLPPYESFEELWDKLQMAIENTQGFDGVD [NEDD4] | -0.163 | -0.41 | 0.545 | -0.127 | 49.3 | 49.7 |
| MAQLGAVVAVASSFFCASLFSAVHKIEEGHIGVYYRGGALLTSTSGPGFHLMLPFITSYKSVQTTLQTDEVKNVPCGTSGGVMIYFDRIEVVNFLVPNAVYDIVKNYTADYDKALIFNKIHHELNQFCSVHTLQEVYIELFDQIDENLKLALQQDLTSMAPGLVIQAVRVTKPNIPEAIRRNYELMESEKTKLLIAAQKQKVVEKEAETERKKALIEAEKVAQVAEITYGQKVMEKETEKKISEIEDAAFLAREKAKADAECYTAMKIAEANKLKLTPEYLQLMKYKAIASNSKIYFGKDIPNMFMDSAGSVSKQFEGLADKLSFGLEDEPLETATKEN [ERLIN2] | -0.0221 | 2.26 | 1.92 | 0.0653 | 52.7 | 53.2 |
| MDLRQFLMCLSLCTAFALSKPTEKKDRVHHEPQLSDKVHNDAQSFDYDHDAFLGAEEAKTFDQLTPEESKERLGKIVSKIDGDKDGFVTVDELKDWIKFAQKRWIYEDVERQWKGHDLNEDGLVSWEEYKNATYGYVLDDPDPDDGFNYKQMMVRDERRFKMADKDGDLIATKEEFTAFLHPEEYDYMKDIVVQETMEDIDKNADGFIDLEEYIGDMYSHDGNTDEPEWVKTEREQFVEFRDKNRDGKMDKEETKDWILPSDYDHAEAEARHLVYESDQNKDGKLTKEEIVDKYDLFVGSQATDFGEALVRHDEF [CALU] | 0.167 | 1.04 | -0.549 | 0.281 | 57.8 | 60.3 |
| MAQTVQNVTLSLTLPITCHICLGKVRQPVICINNHVFCSICIDLWLKNNSQCPACRVPITPENPCKEIIGGTSESEPMLSHTVRKHLRKTRLELLHKEYEDEIDCLQKEVEELKSKNLSLESQIKTILDPLTLVQGNQNEDKHLVTDNPSKINPETVAEWKKKLRTANEIYEKVKDDVDKLKEANKKLKLENGGLVRENLRLKAEVDNRSPQKFGRFAVAALQSKVEQYERETNRLKKALERSDKYIEELESQVAQLKNSSEEKEAMNSICQTALSADGKGSKGSEEDVVSKNQGDSARKQPGSSTSSSSHLAKPSSSRLCDTSSARQESTSKADLNCSKNKDLYQEQVEVMLDVTDTSMDTYLEREWGNKPSDCVPYKDEELYDLPAPCTPLSLSCLQLSTPENRESSVVQAGGSKKHSNHLRKLVFDDFCDSSNVSNKDSSEDDISRSENEKKSECFSSPKTGFWDCCSTSYAQNLDFESSEGNTIANSVGEISSKLSEKSGLCLSKRLNSIRSFEMNRTRTSSEASMDAAYLDKISELDSMMSESDNSKSPCNNGFKSLDLDGLSKSSQGSEFLEEPDKLEEKTELNLSKGSLTNDQLENGSEWKPTSFFLLSPSDQEMNEDFSLHSSSCPVTNEIKPPSCLFQTEFSQGILLSSSHRLFEDQRFGSSLFKMSSEMHSLHNHLQSPWSTSFVPEKRNKNVNQSTKRKIQSSLSSASPSKATKS [RNF219] | -0.0524 | 0.213 | 2.43 | -0.0524 | 46.5 | 49.3 |
| MAAPILRSFSWGRWSGTLNLSVLLPLGLRKAHSGAQGLLAAQKARGLFKDFFPETGTKIELPELFDRGTASFPQTIYCGFDPTADSLHVGHLLALLGLFHLQRAGHNVIALVGGATARLGDPSGRTKEREALETERVRANARALRLGLEALAANHQQLFTDGRSWGSFTVLDNSAWYQKQHLVDFLAAVGGHFRMGTLLSRQSVQLRLKSPEGMSLAEFFYQVLQAYDFYYLFQRYGCRVQLGGSDQLGNIMSGYEFINKLTGEDVFGITVPLITSTTGAKLGKSAGNAVWLNRDKTSPFELYQFFVRQPDDSVERYLKLFTFLPLPEIDHIMQLHVKEPERRGPQKRLAAEVTKLVHGREGLDSAKRCTQALYHSSIDALEVMSDQELKELFKEAPFSEFFLDPGTSVLDTCRKANAIPDGPRGYRMITEGGVSINHQQVTNPESVLIVGQHILKNGLSLLKIGKRNFYIIKWLQL [YARS2] | -0.0352 | 0.871 | 4.36 | 0.027 | 48.8 | 48.2 |
| MSEHVEPAAPGPGPNGGGGGPAPARGPRTPNLNPNPLINVRDRLFHALFFKMAVTYSRLFPPAFRRLFEFFVLLKALFVLFVLAYIHIVFSRSPINCLEHVRDKWPREGILRVEVRHNSSRAPVFLQFCDSGGRGSFPGLAVEPGSNLDMEDEEEEELTMEMFGNSSIKFELDIEPKVFKPPSSTEALNDSQEFPFPETPTKVWPQDEYIVEYSLEYGFLRLSQATRQRLSIPVMVVTLDPTRDQCFGDRFSRLLLDEFLGYDDILMSSVKGLAENEENKGFLRNVVSGEHYRFVSMWMARTSYLAAFAIMVIFTLSVSMLLRYSHHQIFVFIVDLLQMLEMNMAIAFPAAPLLTVILALVGMEAIMSEFFNDTTTAFYIILIVWLADQYDAICCHTSTSKRHWLRFFYLYHFAFYAYHYRFNGQYSSLALVTSWLFIQHSMIYFFHHYELPAILQQVRIQEMLLQAPPLGPGTPTALPDDMNNNSGAPATAPDSAGQPPALGPVSPGASGSPGPVAAAPSSLVAAAASVAAAAGGDLGWMAETAAIITDASFLSGLSASLLERRPASPLGPAGGLPHAPQDSVPPSDSAASDTTPLGAAVGGPSPASMAPTEAPSEVGS [TMEM259] | -0.025 | 0.29 | 0.308 | -0.252 | 54.7 | 54.2 |
